Experimental data from patent US20110171312A1, “MODIFIED THERAPEUTIC PEPTIDES, METHODS OF THEIR PREPARATION AND USE” (Nektar Therapeutics, priority 2008, published 2011).
Where two headings read alike, the source gives them in different places.

Key:
[1] = Quick release test of releasable PEG-insulin conjugate; assay type: physicochemical; details: 100 mM HEPES, pH 8.66, 50° C., approximately 24 hours; gel electrophoresis
Description: The pH was adjusted to 8.66 with 11.0 μL 2 M NaOH. Incubated solution at 50° C. for approximately 24 hours. […] This is slightly lower than the theoretical content of 22.5%. […] Peptide mapping was performed to determine which residue on insulin was modified. […] The purity of the conjugate was 91% mono-conjugate as determined by reverse phase HPLC.

beagle dogs [2] = experiment: PK/PD after IH (powder inhalation) dosing in dogs (Example 26); details: for Effect/mg Dosed: AUEC per mg of IH lung dose; for Effect (Glucose Suppression AUEC): lung dose 0.34, 0.6, 2 mg
Description: (§1) The compounds were prepared in accordance with Examples 16 and 18.
(§2) 6 Beagle dogs (˜7-10 kg) were anesthetized in both the IV and IH arms of this study for consistency. Dogs were then given 0.1 mg/kg acepromazine subcutaneously ˜15 minutes prior to 1-5% isoflurane mask induction. Once the appropriate plane of anesthesia was achieved, the pre-shaved neck of the dog was installed with an 18-20 G Abbocath intravenous catheter in the right or left jugular vein and pre-dose sampling was taken. This catheter was used for all blood samplings other than the later time points (16, 20 and 24 hour). Subsequent samples were taken from the cephalic veins.
The formulated control and test articles were delivered by inhalation (IH) via an endotracheal (ET) tube. Ventilator stroke volume was set empirically for each dog to achieve a Peak Mouth Pressure (PMP) of 20-25 cm H2O. A digital manometer (Dwyer Instruments, Michigan City, Ind.) was connected to the ET tube/“Y” connector to monitor PMP. Each blister pack (BP) was delivered with 2 full breathing cycles. No more than 3 BPs were administered during one apneic period. If required to achieve the target administered dose, a second apneic period was induced after an interval of 2 minutes of spontaneous breathing.
Total administered powder as well as estimated inhaled total lung dose were reported.
(§3) Whole blood was used for the glucose measurements. EDTA-anticoagulated plasma was used for compound quantitation assays.
(§4) Quantitation of test and control articles for PK analysis was made with a radio-immuno assay (RIA) conducted at Linco Research, St-Charles, Mo. […] This antiserum was used as the basis of an RIA assay which was then qualified with respect to accuracy, precision, sensitivity, and dilutional linearity. The working range of this assay was 0.15-5 ng/ml. Samples exceeding the upper boundary of this range were diluted in a pool of charcoal-stripped canine plasma.
To calculate the overall glucose suppression, glucose levels were normalized by the equation:
GlucoseSuppression(t)=PredoseGlucoseConcentration−Glucose(t)
The glucose suppression-time profiles were integrated using linear-trapezoidal rule to calculate the area under the effect curve (AUEC).

beagle dogs [3] = details: glucose clamp, powder inhalation (FIG. 13a)
Description: The glucose clamp technique involved the continuous infusion of a 50% glucose solution at a rate such that normal serum glucose values were maintained throughout the experiment (e.g., normal range is 80-100 mg/dl).
Glucagon was also infused to maintain normal serum physiologic concentrations. […] Blood was withdrawn from an indwelling catheter over a 10-hour period.

beagle dogs [4] = experiment: PK/PD after IV dosing in dogs (Example 26); details: for CMAX: baseline corrected
Description: as §1, §2
The test and control articles were administered by bolus intravenous (IV) injection of a volume of 300 μl into the left cephalic vein using a 22 G 1 inch 1 mL tuberculin syringe.
as §3, §4

[5] = 100 mM acetic acid
[6] = 14.3/(14.3 + 0.2) * 100%
Description: Concentrations of collected samples were determined using UV spectroscopy, while the integrity analysis of the collected protein was evaluated by HPLC.

Sprague-Dawley rats [7] = details: rats, intravenous
Description: The first phase established a dose of the compound required to achieve a target blood glucose reduction. This target blood glucose reduction was chosen to be the minimum reduction that is clearly recognizable as different from the resting blood glucose concentration.
The second phase examined the pharmacokinetics/pharmacodynamics of the molecule when administered to rats at the selected dose over an observation time sufficient for the glucose to return to baseline.
These experiments were conducted on male adult Sprague-Dawley rats of approximately 0.30-0.40 kg. Animals were obtained pre-cannulated with a jugular vein catheter (JVC) for blood sampling and, in the case of IV administration, and additional femoral vein catheter (FVC).
Intravenous administration of compounds was made via a femoral catheter in a volume of 300 μl.
Sample Collection was performed as follows. Blood samples of approximately 0.50 mL were collected from the JVC using a 1 mL syringe at each time point. A new syringe was used for each time point along with precautions to prevent contamination and carry-over.
The glucose monitoring was conducted as follows. Approximately 20 μL of whole blood was touched to the end of the glucose test strip of 2 Glucometer Elite glucose monitors for a duplicate determination of blood glucose concentrations. If there was a discrepancy of greater than 5 mg/dl, a third reading was taken.
The sample for compound quantitation in plasma, which served as basis for the PK analysis, was collected and processed as follows. The volume of blood remaining after the glucose measurement (˜480 μL) was anticoagulated with K2 EDTA and centrifuged to recover plasma. The plasma was collected and stored at −80° C. until analysis.

Sprague-Dawley rats [8] = experiment: Dose determination and PK/PD after intratracheal instillation (Example 25); assay type: in vivo, rat; details: intratracheal
Description: A spectrometric measurement of compound concentration was also made.
Intratracheal Instillation (IT) was conducted as follows.
Sample Collection was performed as follows.
The glucose monitoring was conducted as follows.
The experimental protocol was modified for the analysis of the acetylated compounds. This resulted from the intent to use LC/MS-MS for the quantitation of compound concentrations in plasma. This analytical technique requires a larger volume of plasma to permit concentration of the sample and achieve the requisite increase in sensitivity. […] The protocol was therefore modified to increase the number of animals by two-fold and split the samples between these two cohorts.
To explore the data further, the PK profiles after IT doses were deconvoluted using IV PK parameters using the Wagner Nelson deconvolution procedure, to generate the cumulative absorption profile (FIG. 32).

[9] = dogs, IV, insulin 0.027, 2K 0.058, 5K 0.084 mg/dog, mean
[10] = dog, in vivo, inhaled or intranasal

## G2-PEG2-FMOC-NHS 40K insulin: Example 21: releasable mono-conjugate of insulin with G2-PEG2-FMOC-NHS 40K, site specific (B1)
[1]
  release of insulin from the PEG: Complete release

## Insulin: unmodified human insulin used as control and starting material [reference compound]
Beagle dogs [2]; dogs, IH, 0.34 mg/dog
  time of last quantifiable sample: 2 h
Beagle dogs [2]; dogs, IH
  Effect/mg Dosed: 156
  Effect (Glucose Suppression AUEC): 53
Beagle dogs [2]; dogs, IH, lung dose insulin 0.34, 2K 0.60, 5K 2.0 mg/dog, mean
  AUC0-LAST: 1.538 ng·h/mL
Beagle dogs [2]; dogs, IH, lung dose insulin 0.34, 2K 0.60, 5K 2.0 mg/dog, mean, baseline corrected
  CMAX: 1.567 ng/mL
Beagle dogs [2]; dogs, powder after the ET tube, relative to IV
  calculated IH bioavailability: about 6%
Beagle dogs [3]
  duration for which glucose infusion was necessary: 300 min
Beagle dogs [4]; [9]
  AUC0-LAST: 1.822 ng·h/mL
  CMAX: 9.1 ng/mL
Beagle dogs [4]; dogs, IV, insulin 0.027, 2K 0.058, 5K 0.084 mg/dog, mean, listed as INSULIN
  CMAX: 9.117 ng/mL
[5]; pH 4
  solubility: ~5000 µg/mL
[5]; pH 4, listed as insulin
  solubility: up to 5 mg/ml
[5]; pH 5
  solubility: less than 1 mg/ml

## di-N^αA1,N^εB29-(acetyl)-N^αB1-{3-[methoxy(ethoxy)5K]propionyl}insulin [PEG5000-B1 Di-acetylated insulin]
[6]
  % Collected as aerosol: 98%^1
Sprague-Dawley rats [7]; insulin mass
  dose adequate to reduce blood glucose to the target (40-60 mg/dl): 20 μg/rat
Sprague-Dawley rats [7]; 20 μg/rat (5K di-acetylated), 10 μg/rat (2K di-acetylated)
  group mean Cmin (blood glucose nadir), definitive leg: 54 mg/dL
Beagle dogs [2]; dog, in vivo
  T1/2: about 15 HR
  T1/2, range across dogs: 6.6 to 51 h
  TMAX: about 2.5 HR
  Tmax, range across dogs: 1 to 8 h
Beagle dogs [2]; [10]
  T1/2: 15.045 h
  calculated IH bioavailability: about 36%
Beagle dogs [2]; dogs, IH
  duration of glucose suppression versus Insulin: significantly increased
  Effect/mg Dosed: 179
  Effect (Glucose Suppression AUEC): 358
Sprague-Dawley rats [8]; 520 μg/animal (Table 7)
  Cmin (minimum blood glucose concentration): 58 ± 11 mg/dL
  Tmin (time to Cmin): 7.1 ± 6.6 h
Sprague-Dawley rats [8]; selected dose
  time up to which blood glucose is still suppressed (not back to baseline): at least 12 hrs
Beagle dogs [4]; beagle, dog, in vivo, iv
  T1/2: 0.755 h
Beagle dogs [4]; dog, in vivo, iv
  T1/2: about 0.76 HR
  TMAX: 4.8 min
  central volume of distribution (Vc): about 115 mL/kg
Beagle dogs [4]; dogs, IV
  overall glucose suppression versus Insulin: overall glucose suppressions were similar in terms of maximum suppression and duration of action
